Experimental findings from the supplement of paper PMC6755084 are described below.

The series deals with F1*sub RNA substrate (template-directed ligation). The series can be described thus: fraction ligated after 30 min (ligated reads / total reads); higher = more ligase activity; sequences stand for … in GAGACCGCAACTGAAAAGTTGT…AGTTCTGCACGTAGAAGCAAAAGGC
The following applies: 42 °C. A digest of the protocol:
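The ligase ribozyme variants were produced by PCR amplification of oligo-pool templates, T7 transcription and purification on gel. Their ligated and unligated forms were gel-separated, then reverse transcribed with barcoded primers before MiSeq sequencing. Core bases were filtered at a quality of ≥20, and fraction ligated per variant was ligated reads over total reads.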
“TATCACTTGTCGAAGAACTTTGGTGGGTTGA [3d1938]” returned a fraction ligated of 0.173.

For the sequence “TATCACTTGTCGAAGAATTTGGATGGGTTGA [3d1935]”, the fraction ligated came out at 0.776. On to “TATCACTTGTCGAAGACACTGGATGGGTTGA [3d1957]”, for which the fraction ligated worked out at 0.767.

In turn, “TATCACTTGTCGAAGACACTTGATGGGTTGA [3d1958]” showed a fraction ligated of 0.663.

In turn, “TATCACTTGTCGAAGACACTTGGAGGGTTGA [3d1960]” gave a fraction ligated of 0.0758. The sequence “TATCACTTGTCGAAGACACTTGGATGGGTTA [3d1962]” gave a fraction ligated of 0.721. Regarding “TATCACTTGTCGAAGACACTTGGATGGGTTG [3d1963]”, the fraction ligated is 0.794.

The sequence “TATCACTTGTCGAAGACACTTGGATGGTTGA [3d1961]” had a fraction ligated of 0.106. The sequence “TATCACTTGTCGAAGACACTTGGTGGGTTGA [3d1959]” had a fraction ligated of 0.119. Take “TATCACTTGTCGAAGACACTTTATGGGTTGA [3d1964]”: the fraction ligated was 0.16. With “TATCACTTGTCGAAGACACTTTGAGGGTTGA [3d1966]”, the fraction ligated came out at 0.0437. The value for “TATCACTTGTCGAAGACACTTTGATGGGTTA [3d1968]” was 0.15. For “TATCACTTGTCGAAGACACTTTGATGGGTTG [3d1969]” the value was 0.732; for “TATCACTTGTCGAAGACACTTTGATGGTTGA [3d1967]”, 0.0642; for “TATCACTTGTCGAAGACACTTTGGAGGGTTA [3d1975]”, 0.136. For “TATCACTTGTCGAAGACACTTTGGAGGGTTG [3d1976]”, the fraction ligated came out at 0.08.

Sequence “TATCACTTGTCGAAGACACTTTGGAGGTTGA [3d1974]” returned a fraction ligated of 0.0837. The value for “TATCACTTGTCGAAGACACTTTGGATGGGTT [3d1979]” was 0.763; that for “TATCACTTGTCGAAGACACTTTGGATGGGTTA [2d219]” was 0.803; that for “TATCACTTGTCGAAGACACTTTGGATGGGTTG [2d220]” was 0.856. For “TATCACTTGTCGAAGACACTTTGGATGGTTA [3d1977]”, the fraction ligated was found to be 0.364. For “TATCACTTGTCGAAGACACTTTGGATGGTTG [3d1978]” the value was 0.432; for “TATCACTTGTCGAAGACACTTTGGATGGTTGA [2d218]”, 0.615. Sequence “TATCACTTGTCGAAGACACTTTGGGGGTTGA [3d1970]” registered a fraction ligated of 0.133.

“TATCACTTGTCGAAGACACTTTGGTGGGTTA [3d1972]” displayed a fraction ligated of 0.103. In turn, “TATCACTTGTCGAAGACACTTTGGTGGGTTG [3d1973]” displayed a fraction ligated of 0.0779. Turning to “TATCACTTGTCGAAGACACTTTGGTGGTTGA [3d1971]”, the fraction ligated came out at 0.0847. For the sequence “TATCACTTGTCGAAGACACTTTGTGGGTTGA [3d1965]”, the fraction ligated was determined as 0.0368. Sequence “TATCACTTGTCGAAGACATTGGATGGGTTGA [3d1950]” had a fraction ligated of 0.787. Regarding “TATCACTTGTCGAAGACATTTGATGGGTTGA [3d1951]”, the fraction ligated was found to be 0.329. “TATCACTTGTCGAAGACATTTGGAGGGTTGA [3d1953]” gave a fraction ligated of 0.021.

Turning to “TATCACTTGTCGAAGACATTTGGATGGGTTA [3d1955]”, the fraction ligated was 0.788. Take “TATCACTTGTCGAAGACATTTGGATGGGTTG [3d1956]”: the fraction ligated came to 0.801. “TATCACTTGTCGAAGACATTTGGATGGTTGA [3d1954]” returned a fraction ligated of 0.133. For “TATCACTTGTCGAAGACATTTGGTGGGTTGA [3d1952]” the value was 0.05. As to “TATCACTTGTCGAAGACCTTGGATGGGTTGA [3d1943]”, the fraction ligated was 0.768. Regarding “TATCACTTGTCGAAGACCTTTGATGGGTTGA [3d1944]”, the fraction ligated amounted to 0.76.

Sequence “TATCACTTGTCGAAGACCTTTGGAGGGTTGA [3d1946]” gave a fraction ligated of 0.198. For “TATCACTTGTCGAAGACCTTTGGATGGGTTA [3d1948]”, the fraction ligated came to 0.773. As to “TATCACTTGTCGAAGACCTTTGGATGGGTTG [3d1949]”, the fraction ligated turned out to be 0.79. Sequence “TATCACTTGTCGAAGACCTTTGGATGGTTGA [3d1947]” gave a fraction ligated of 0.299. Regarding “TATCACTTGTCGAAGACCTTTGGTGGGTTGA [3d1945]”, the fraction ligated worked out at 0.218. The sequence “TATCACTTGTCGAAGACTTTGGATGGGTTGA [3d1925]” had a fraction ligated of 0.784. For the sequence “TATCACTTGTCGAAGCACTTGGATGGGTTGA [3d1928]”, the fraction ligated turned out to be 0.747. For the sequence “TATCACTTGTCGAAGCACTTTGATGGGTTGA [3d1929]”, the fraction ligated came out at 0.736. On to “TATCACTTGTCGAAGCACTTTGGAGGGTTGA [3d1931]”, for which the fraction ligated came out at 0.108. Sequence “TATCACTTGTCGAAGCACTTTGGATGGGTTA [3d1933]” yielded a fraction ligated of 0.723. The value for “TATCACTTGTCGAAGCACTTTGGATGGGTTG [3d1934]” was 0.783.

Regarding “TATCACTTGTCGAAGCACTTTGGATGGTTGA [3d1932]”, the fraction ligated came out at 0.159. Take “TATCACTTGTCGAAGCACTTTGGTGGGTTGA [3d1930]”: the fraction ligated is 0.0884. The sequence “TATCACTTGTCGAAGCATTTGGATGGGTTGA [3d1927]” gave a fraction ligated of 0.811. “TATCACTTGTCGAAGCCTTTGGATGGGTTGA [3d1926]” showed a fraction ligated of 0.757. “TATCACTTGTCGAGAACTTTGGATGGGTTGA [3d1905]” yielded a fraction ligated of 0.819.

In turn, “TATCACTTGTCGAGACACTTGGATGGGTTGA [3d1908]” registered a fraction ligated of 0.793. Turning to “TATCACTTGTCGAGACACTTTGATGGGTTGA [3d1909]”, the fraction ligated was determined as 0.74. Turning to “TATCACTTGTCGAGACACTTTGGAGGGTTGA [3d1911]”, the fraction ligated is 0.104.

On to “TATCACTTGTCGAGACACTTTGGATGGGTTA [3d1913]”, for which the fraction ligated came out at 0.765.

Regarding “TATCACTTGTCGAGACACTTTGGATGGGTTG [3d1914]”, the fraction ligated is 0.797. In turn, “TATCACTTGTCGAGACACTTTGGATGGGTTGA [2d208]” displayed a fraction ligated of 0.816. In the case of “TATCACTTGTCGAGACACTTTGGATGGTTGA [3d1912]”, the fraction ligated worked out at 0.166. With “TATCACTTGTCGAGACACTTTGGTGGGTTGA [3d1910]”, the fraction ligated stood at 0.0759. The value for “TATCACTTGTCGAGACATTTGGATGGGTTGA [3d1907]” was 0.829; that for “TATCACTTGTCGAGACCTTTGGATGGGTTGA [3d1906]” was 0.788; that for “TATCACTTGTCGAGCACTTTGGATGGGTTGA [3d1904]” was 0.749. For “TATCACTTGTCGGACACTTTGGATGGGTTGA [3d1902]” the value was 0.785.

On to “TATCACTTGTCGTAAAACTTGGATGGGTTGA [3d2060]”, for which the fraction ligated was found to be 0.782. The sequence “TATCACTTGTCGTAAAACTTTGATGGGTTGA [3d2061]” gave a fraction ligated of 0.781. The value for “TATCACTTGTCGTAAAACTTTGGAGGGTTGA [3d2063]” was 0.0898; that for “TATCACTTGTCGTAAAACTTTGGATGGGTTA [3d2065]” was 0.764. For “TATCACTTGTCGTAAAACTTTGGATGGGTTG [3d2066]” the value was 0.791; for “TATCACTTGTCGTAAAACTTTGGATGGGTTGA [2d234]”, 0.818. Take “TATCACTTGTCGTAAAACTTTGGATGGTTGA [3d2064]”: the fraction ligated worked out at 0.185.
